According to paper PMC11404819, “Peptide nucleic acids can form hairpins and bind RNA-binding proteins”:

Target: T1, Avi-FtsYNG (UniProt P10121 196-497)
T1 sequence: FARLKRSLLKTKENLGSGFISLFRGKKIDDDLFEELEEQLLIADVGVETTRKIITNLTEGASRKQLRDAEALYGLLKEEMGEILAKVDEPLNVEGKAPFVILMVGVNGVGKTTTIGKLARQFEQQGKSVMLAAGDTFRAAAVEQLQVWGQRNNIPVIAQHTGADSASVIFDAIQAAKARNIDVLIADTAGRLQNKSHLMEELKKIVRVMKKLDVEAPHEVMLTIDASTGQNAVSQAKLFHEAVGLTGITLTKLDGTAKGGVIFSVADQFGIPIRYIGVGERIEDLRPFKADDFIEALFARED
Test: SPR; 10 C; RNA over immobilised protein; curve incomplete, fit fixed with GDP control; figure legend swaps panels with PNAtet; SPR: 20 mM HEPES pH 7.5, 150 mM NaCl, 3 mM MgCl2, 1 mM TCEP, 1% glycerol, 0.005% Tween, 10 C; MST: 50 mM HEPES pH 7.5, 100 mM NaCl, 1.5 mM MgCl2, 10% glycerol
Conditions: protein: recombinant; tags: Avi tag, biotinylated, immobilised on streptavidin; hairpin, 5 bp stem

With GCGCCGGAAGGCGC (structured_RNA, first and last two phosphodiester bonds replaced by phosphorothioate) [moRNAtet] the Kd was 160 ± 20 µM.
